Source: publication PMC8294757 (Science Advances, 2021)

Molecular target: ELMO1-DOCK5 (1 to 1642) complex (human, UniProt Q9H7D0 1-1642; Q92556 1-727)
Experiment: SPR

Chain of ELMO1-DOCK5 (1 to 1642) complex (Q9H7D0 1-1642, chain 1 of 2): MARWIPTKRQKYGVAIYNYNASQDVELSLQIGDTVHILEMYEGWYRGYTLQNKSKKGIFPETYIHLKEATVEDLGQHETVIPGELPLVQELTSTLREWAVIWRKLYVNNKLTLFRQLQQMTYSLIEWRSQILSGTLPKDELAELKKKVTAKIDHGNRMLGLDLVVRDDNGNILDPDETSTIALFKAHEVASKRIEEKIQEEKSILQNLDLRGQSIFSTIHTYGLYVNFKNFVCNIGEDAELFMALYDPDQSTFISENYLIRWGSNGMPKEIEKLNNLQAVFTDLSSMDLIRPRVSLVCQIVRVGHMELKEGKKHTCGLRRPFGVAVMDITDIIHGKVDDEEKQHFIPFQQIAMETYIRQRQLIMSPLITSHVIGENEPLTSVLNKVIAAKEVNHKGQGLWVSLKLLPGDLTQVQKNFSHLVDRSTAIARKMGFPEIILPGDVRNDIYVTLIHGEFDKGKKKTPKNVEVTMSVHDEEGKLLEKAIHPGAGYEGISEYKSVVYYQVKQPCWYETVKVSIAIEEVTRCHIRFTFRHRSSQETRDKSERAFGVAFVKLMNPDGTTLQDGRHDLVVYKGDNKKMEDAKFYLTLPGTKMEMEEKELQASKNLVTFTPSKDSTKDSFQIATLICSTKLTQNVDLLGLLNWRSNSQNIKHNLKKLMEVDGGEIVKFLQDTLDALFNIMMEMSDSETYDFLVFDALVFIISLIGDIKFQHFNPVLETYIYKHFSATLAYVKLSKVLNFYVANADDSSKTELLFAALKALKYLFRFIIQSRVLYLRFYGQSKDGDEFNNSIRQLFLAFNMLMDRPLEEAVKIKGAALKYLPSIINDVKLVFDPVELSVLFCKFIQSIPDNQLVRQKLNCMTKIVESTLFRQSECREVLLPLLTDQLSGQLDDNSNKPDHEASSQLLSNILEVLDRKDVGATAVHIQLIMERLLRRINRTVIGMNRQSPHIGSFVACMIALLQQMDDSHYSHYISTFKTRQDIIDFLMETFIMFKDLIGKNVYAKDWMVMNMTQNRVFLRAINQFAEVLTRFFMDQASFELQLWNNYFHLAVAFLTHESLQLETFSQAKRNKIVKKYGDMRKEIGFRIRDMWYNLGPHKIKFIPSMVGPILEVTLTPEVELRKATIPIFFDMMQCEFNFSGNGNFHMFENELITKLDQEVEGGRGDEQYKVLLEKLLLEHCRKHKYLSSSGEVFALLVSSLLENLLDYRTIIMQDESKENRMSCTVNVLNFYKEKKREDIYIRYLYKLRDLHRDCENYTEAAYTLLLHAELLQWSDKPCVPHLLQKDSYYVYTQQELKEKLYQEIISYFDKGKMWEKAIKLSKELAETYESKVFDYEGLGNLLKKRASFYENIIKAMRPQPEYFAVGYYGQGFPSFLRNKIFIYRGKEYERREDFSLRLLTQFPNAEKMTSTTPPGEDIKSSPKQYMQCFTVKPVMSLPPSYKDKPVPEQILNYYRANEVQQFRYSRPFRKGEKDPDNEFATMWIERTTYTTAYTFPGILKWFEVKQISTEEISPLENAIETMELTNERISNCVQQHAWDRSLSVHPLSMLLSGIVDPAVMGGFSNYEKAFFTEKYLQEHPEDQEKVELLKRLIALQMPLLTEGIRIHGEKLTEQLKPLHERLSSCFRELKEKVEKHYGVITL
Chain of ELMO1-DOCK5 (1 to 1642) complex (Q92556 whole entry, chain 2 of 2): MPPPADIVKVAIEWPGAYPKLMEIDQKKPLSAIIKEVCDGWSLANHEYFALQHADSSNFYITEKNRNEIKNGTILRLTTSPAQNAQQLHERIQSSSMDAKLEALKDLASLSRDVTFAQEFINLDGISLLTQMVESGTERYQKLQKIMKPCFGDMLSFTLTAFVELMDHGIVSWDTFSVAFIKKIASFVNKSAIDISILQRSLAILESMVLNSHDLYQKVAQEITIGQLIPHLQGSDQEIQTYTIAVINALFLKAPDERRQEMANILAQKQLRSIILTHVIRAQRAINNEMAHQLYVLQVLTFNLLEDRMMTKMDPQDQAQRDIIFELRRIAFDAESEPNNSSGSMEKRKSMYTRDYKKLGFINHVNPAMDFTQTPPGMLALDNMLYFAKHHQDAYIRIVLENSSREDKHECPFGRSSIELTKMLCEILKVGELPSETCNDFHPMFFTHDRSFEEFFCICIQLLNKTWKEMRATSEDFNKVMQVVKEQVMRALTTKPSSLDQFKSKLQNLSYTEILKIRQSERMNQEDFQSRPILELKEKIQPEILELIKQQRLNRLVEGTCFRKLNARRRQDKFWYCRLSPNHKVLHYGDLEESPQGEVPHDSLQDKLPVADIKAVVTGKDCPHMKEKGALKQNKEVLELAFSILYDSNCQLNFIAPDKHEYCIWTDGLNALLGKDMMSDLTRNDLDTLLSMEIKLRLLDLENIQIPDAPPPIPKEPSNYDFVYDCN

- Kd: 10.3 µM
B1: human RhoG (residues 1 to 184) Q61L mutant, GTP-bound (natural protein)
chain: not shown
